# Legend:
# Experiment in all cases: cell-based or functional assay
# [1] = target: HIV-1 Env of pseudovirus 3817.v2.c59 (HIV-1)
# [2] = target: HIV-1 Env of pseudovirus 191084 B7-19 (HIV-1)
# [3] = target: HIV-1 Env of pseudovirus BJOX010000.06.2 (HIV-1)
# [4] = target: HIV-1 Env of pseudovirus Ce1176_A3 (HIV-1)
# [5] = target: HIV-1 Env of pseudovirus 3415.v1.c1 (HIV-1)
# [6] = target: HIV-1 Env of pseudovirus Q23.17 (HIV-1)
# [7] = target: HIV-1 Env of pseudovirus 0260.v5.c36 (HIV-1)
Substance,"IC50, titer in TZM.bl cells [1]","IC80, titer in TZM.bl cells [1]",neutralization IC50 [2],neutralization IC80 [2],"IC50, titer in TZM.bl cells [3]","IC80, titer in TZM.bl cells [3]",neutralization IC50 [4],neutralization IC80 [4],neutralization IC50 [6],neutralization IC80 [6],IC50 [7],IC80 [7],IC50 [2],IC80 [2],IC50 [4],IC80 [4],IC50 [6],IC80 [6],further results
3BNC117 (antibody),0.15 µg/mL,0.52 µg/mL,0.07 µg/mL,0.23 µg/mL,1.58 µg/mL,10.4 µg/mL,0.22 µg/mL,0.75 µg/mL,0.005 µg/mL,0.02 µg/mL,–,–,–,–,–,–,–,–,neutralization IC50 [5]: 0.17 µg/mL; neutralization IC80 [5]: 0.47 µg/mL
8ANC195 (antibody),1 µg/mL,5.3 µg/mL,> 50 µg/mL,> 50 µg/mL,0.85 µg/mL,5.84 µg/mL,4.45 µg/mL,35.2 µg/mL,2.55 µg/mL,2.55 µg/mL,–,–,–,–,–,–,–,–,–
N49P6 (antibody),–,–,–,–,–,–,–,–,–,–,0.485 µg/mL,1.55 µg/mL,0.062 µg/mL,0.257 µg/mL,0.594 µg/mL,2.11 µg/mL,52 ng/mL,0.185 µg/mL,MPI [7]: 100; IC50 [1]: 16.9 µg/mL; IC80 [1]: > 50 µg/mL; MPI [1]: 78; MPI [2]: 100; IC50 [3]: 0.681 µg/mL; IC80 [3]: 3.53 µg/mL; MPI [3]: 100; MPI [4]: 100; IC50 [5]: 0.188 µg/mL; IC80 [5]: 0.648 µg/mL; MPI [5]: 100; MPI [6]: 100
NIH 45-46 (antibody),> 50 µg/mL,> 50 µg/mL,0.02 µg/mL,0.07 µg/mL,0.87 µg/mL,6.37 µg/mL,1.29 µg/mL,5.55 µg/mL,0.14 µg/mL,0.6 µg/mL,–,–,–,–,–,–,–,–,neutralization IC50 [5]: 0.07 µg/mL; neutralization IC80 [5]: 0.07 µg/mL
PGDM1400 (antibody),> 50 µg/mL,> 50 µg/mL,–,–,0.605 µg/mL,5.87 µg/mL,–,–,–,–,0.033 µg/mL,0.175 µg/mL,< 0.001 µg/mL,0.007 µg/mL,0.587 µg/mL,11.6 µg/mL,< 1 ng/mL,0.003 µg/mL,–
PGT121 (antibody),–,–,–,–,–,–,–,–,–,–,0.053 µg/mL,0.197 µg/mL,–,–,0.013 µg/mL,0.035 µg/mL,< 1 ng/mL,0.005 µg/mL,IC50 [1]: 18.9 µg/mL; IC80 [1]: > 50 µg/mL; IC50 [3]: > 50 µg/mL; IC80 [3]: > 50 µg/mL
PGT128 (antibody),0.003 µg/mL,0.023 µg/mL,–,–,4.82 µg/mL,> 50 µg/mL,–,–,–,–,0.058 µg/mL,0.162 µg/mL,0.022 µg/mL,0.152 µg/mL,0.009 µg/mL,0.026 µg/mL,9 ng/mL,0.024 µg/mL,–
PGT145 (antibody),> 50 µg/mL,> 50 µg/mL,–,–,> 50 µg/mL,> 50 µg/mL,–,–,–,–,> 50 µg/mL,> 50 µg/mL,0.028 µg/mL,0.345 µg/mL,> 50 µg/mL,> 50 µg/mL,1320 ng/mL,> 50 µg/mL,–
PGT151 (antibody),> 50 µg/mL,> 50 µg/mL,–,–,> 50 µg/mL,> 50 µg/mL,–,–,–,–,0.427 µg/mL,> 50 µg/mL,0.004 µg/mL,0.016 µg/mL,0.006 µg/mL,0.018 µg/mL,7 ng/mL,0.045 µg/mL,–
VRC01 (antibody),> 50 µg/mL,> 50 µg/mL,–,–,–,–,–,–,–,–,–,–,–,–,–,–,–,–,"IC50, titer in TZM.bl cells [4]: 2.25 µg/mL; IC80, titer in TZM.bl cells [4]: 8.1 µg/mL; IC50, titer in TZM.bl cells [5]: 0.06 µg/mL; IC80, titer in TZM.bl cells [5]: 0.15 µg/mL; IC50, titer in TZM.bl cells [6]: 0.09 µg/mL; IC80, titer in TZM.bl cells [6]: 0.261 µg/mL"
VRC07 (antibody),1.9 µg/mL,19.8 µg/mL,0.061 µg/mL,0.209 µg/mL,1.06 µg/mL,10 µg/mL,0.52 µg/mL,2.6 µg/mL,0.081 µg/mL,0.236 µg/mL,–,–,–,–,–,–,–,–,neutralization IC50 [7]: 0.448 µg/mL; neutralization IC80 [7]: 1.62 µg/mL; neutralization IC50 [5]: 0.036 µg/mL; neutralization IC80 [5]: 0.152 µg/mL
